Results taken from patent US20230416352A1 (JIANGSU HENGRUI PHARMACEUTICALS, published 2023).
Changes are numbered by the printed parent chain.

T1: human CTGF (antigen of the Biacore assays) (human, UniProt P29279 27-349, limits assumed)
T1 construct: also called human CTGF protein
T1 sequence: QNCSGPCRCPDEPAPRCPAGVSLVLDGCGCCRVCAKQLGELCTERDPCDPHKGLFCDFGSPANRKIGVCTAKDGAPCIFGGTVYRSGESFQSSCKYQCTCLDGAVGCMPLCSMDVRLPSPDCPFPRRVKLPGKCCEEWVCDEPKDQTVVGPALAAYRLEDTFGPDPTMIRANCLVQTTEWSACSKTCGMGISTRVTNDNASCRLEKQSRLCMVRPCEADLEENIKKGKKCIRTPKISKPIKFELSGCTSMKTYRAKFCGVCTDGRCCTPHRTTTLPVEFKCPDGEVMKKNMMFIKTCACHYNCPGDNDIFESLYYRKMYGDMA

B1: Hu147-22wk (antibody, human IgG1, kappa, V domains shown)
VH: EVQLVESGGGLVQPGGSLRLSCAASGFTFNTYAMNWVRQAPGKGLEWVARIRTKSNNYATYYADSVKDRFTISRDDSKNSLYLQMNSLKTEDTAVYYCVETGFAYWDQGTLVTVSS
VL: EIVLTQSPATLSLSPGERATLSCSASSSVSYMHWFQQKPGQSPKLLIYSTSNLASGIPARFSGSGSGTDYTLTISSLEPEDFAVYYCQQRSSYPLTFGQGTKLEIKR
notes: humanized from mab147, Hu147-VH2/VL2; IgG1/kappa
B2: Hu147-12wk (antibody, human IgG1, kappa, V domains shown)
VH: B1 VH with N30S, A49G
VL: B1 VL
notes: humanized from mab147, Hu147-VH1/VL2; IgG1/kappa
B3: Hu147-24wk (antibody, human IgG1, kappa, V domains shown)
VH: B1 VH
VL: DIQMTQSPSSLSASVGDRVTITCSASSSVSYMHWFQQKPGKSPKLLIYSTSNLASGVPSRFSGSGSGTDYTLTISSLQPEDFATYYCQQRSSYPLTFGQGTKLEIKR
notes: humanized from mab147, Hu147-VH2/VL4; IgG1/kappa
B4: Hu147-21wk (antibody, human IgG1, kappa, V domains shown)
VH: B1 VH
VL: B1 VL with K44R
notes: humanized from mab147, Hu147-VH2/VL1; IgG1/kappa
B5: Hu147-15wk (antibody, human IgG1, kappa, V domains shown)
VH: B1 VH with N30S, A49G
VL: B3 VL with M4L, L46W
notes: humanized from mab147, Hu147-VH1/VL5; IgG1/kappa
B6: Hu147-31wk (antibody, human IgG1, kappa, V domains shown)
VH: B1 VH with T28S, K78E, N79S
VL: B1 VL with K44R
notes: humanized from mab147, Hu147-VH3/VL1; IgG1/kappa
B7: Hu147-23wk (antibody, human IgG1, kappa, V domains shown)
VH: B1 VH
VL: B1 VL with L46W, I57V
notes: humanized from mab147, Hu147-VH2/VL3; IgG1/kappa
B8: Hu147-11wk (antibody, human IgG1, kappa, V domains shown)
VH: B1 VH with N30S, A49G
VL: B1 VL with K44R
notes: humanized from mab147, Hu147-VH1/VL1
B9: Hu147-34wk (antibody, human IgG1, kappa, V domains shown)
VH: B1 VH with T28S, K78E, N79S
VL: B3 VL
notes: humanized from mab147, Hu147-VH3/VL4; IgG1/kappa
B10: Hu147-32wk (antibody, human IgG1, kappa, V domains shown)
VH: B1 VH with T28S, K78E, N79S
VL: B1 VL
notes: humanized from mab147, Hu147-VH3/VL2; IgG1/kappa
B11: Hu147-14wk (antibody, human IgG1, kappa, V domains shown)
VH: B1 VH with N30S, A49G
VL: B3 VL
notes: humanized from mab147, Hu147-VH1/VL4; IgG1/kappa
B12: Hu147-13wk (antibody, human IgG1, kappa, V domains shown)
VH: B1 VH with N30S, A49G
VL: B1 VL with L46W, I57V
notes: humanized from mab147, Hu147-VH1/VL3; IgG1/kappa
B13: Hu147-33wk (antibody, human IgG1, kappa, V domains shown)
VH: B1 VH with T28S, K78E, N79S
VL: B1 VL with L46W, I57V
notes: humanized from mab147, Hu147-VH3/VL3; IgG1/kappa
B14: CTGF antibody mAb1 (antibody, V domains shown)
VH: EGQLVQSGGGLVHPGGSLRLSCAGSGFTFSSYGMHWVRQAPGKGLEWVSGIGTGGGTYSTDSVKGRFTISRDNAKNSLYLQMNSLRAEDMAVYYCARGDYYGSGSFFDCWGQGTLVTVSS
VL: DIQMTQSPSSLSASVGDRVTITCRASQGISSWLAWYQQKPEKAPKSLIYAASSLQSGVPSRFSGSGSGTDFTLTISSLQPEDFATYYCQQYNSYPPTFGQGTKLEIKR
notes: positive control, from CN1829740B; also called pamrevlumab; FG-3019
B15: Hu164-67wl (antibody, human IgG1, lambda)
heavy: not shown
light: ETVVTQEPSLTVSPGGTVTLTCRSSIGAVTTSNYANWVQQKPGQAFRGLIGGTSNRAPWTPARFSGSLLGGKAALTLSGVQPEDEAEYYCALWYSTHYVFGGGTKLTVLGQPKANPTVTLFPPSSEELQANKATLVCLISDFYPGAVTVAWKADGSPVKAGVETTKPSKQSNNKYAASSYLSLTPEQWKSHRSYSCQVTHEGSTVEKTVAPTEC
notes: humanized from mab164, Hu164-VH6/VL7; IgG1/lambda
B16: Hu164-67yl (antibody, human IgG1, lambda)
heavy: EVTLKESGPVLVKPTETLTLTCTVSGFSLSTFGVHWIRQPPGKGLEWLGVIWRRGGTDYNAAFMSRLTISKDTSKSQVVFTMTNMDPVDTATYYCARDGGFDYWGQGTTVTVSSASTKGPSVFPLAPSSKSTSGGTAALGCLVKDYFPEPVTVSWNSGALTSGVHTFPAVLQSSGLYSLSSVVTVPSSSLGTQTYICNVNHKPSNTKVDKKVEPKSCDKTHTCPPCPAPELLGGPSVFLFPPKPKDTLYITREPEVTCVVVDVSHEDPEVKFNWYVDGVEVHNAKTKPREEQYNSTYRVVSVLTVLHQDWLNGKEYKCKVSNKALPAPIEKTISKAKGQPREPQVYTLPPSRDELTKNQVSLTCLVKGFYPSDIAVEWESNGQPENNYKTTPPVLDSDGSFFLYSKLTVDKSRWQQGNVFSCSVMHEALHNHYTQKSLSLSPGK
light: B15 light
notes: humanized from mab164, Hu164-VH6/VL7

Molecular target: T1, human CTGF (antigen of the Biacore …)
Assay: SPR (Biacore T200), human CTGF on CM5 chip, antibody 150 ug/ml then 50 nM TGF-β1 as competitor
Method: The antigen human CTGF was firstly fixed onto a CM5 biosensor chip (Cat. #BR-1005-30, GE) by amino coupling at a level of 1500 RU. Then high-concentration CTGF antibody (150 μg/ml) was allowed to flow over the surface of the chip for 150 s, and 50 nM TGF-β1 protein was injected for 120 s. The reaction signals were detected in real time using a Biacore T200 instrument to obtain an association and dissociation curve. After dissociation was complete in each test cycle, the biosensor chip was washed thoroughly and regenerated with a regeneration buffer.
The data obtained from the experiment were statistically analyzed using GE Biacore T200 Evaluation version 3.0 software.
Blocking efficiency=[1−(sample response value/blank control response value)]×100%.

Percent function blocking (%)	Binder
52.3	B1
51.6	B2
52.8	B3
51.6	B4
52.3	B5
55	B6
54.6	B7
50.8	B8
56.2	B9
55.2	B10
50.9	B11
53.3	B12
57.3	B13
41.3	B14
55.5	B15
53.9	B16
